We go through 2 molecules from article PMC4427203, “Tah1 helix-swap dimerization prevents mixed Hsp90 co-chaperone complexes” (Acta Crystallographica Section D: Biological Crystallography, 2015).

The target in one assay is T1, Flag-Tah1 (S. cerevisiae, UniProt P25638 1-111).
T1 construct: Tah1, yeast
T1 sequence (looked up): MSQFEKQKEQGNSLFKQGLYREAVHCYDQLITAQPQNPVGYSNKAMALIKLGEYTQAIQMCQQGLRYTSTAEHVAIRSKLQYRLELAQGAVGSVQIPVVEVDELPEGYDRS
Nature of the assay: pull-down; 70 µM Flag-Tah1 and Hsp90 600-709 with increasing AIP 172-315 or full-length AIP (5-10 molar excess); 20 mM HEPES pH 7.5, 150 mM NaCl, 10% glycerol, 0.5% IGEPAL, 2 mM EDTA; captured on anti-Flag M2 magnetic beads; eluate on SDS-PAGE. As to conditions: both partners purified.

The target in assay [1] is T2, Tah1 (full-length yeast Tah1) (S. cerevisiae, UniProt P25638 1-111).
T2 construct: Tah1, yeast (S. cerevisiae), synthetic full-length gene expressed from pRSET-A; In the crystal two Tah1 chains form a helix-swapped dimer; in solution Tah1 is mainly monomeric; also called TPR domain of Tah1
T2 sequence (looked up): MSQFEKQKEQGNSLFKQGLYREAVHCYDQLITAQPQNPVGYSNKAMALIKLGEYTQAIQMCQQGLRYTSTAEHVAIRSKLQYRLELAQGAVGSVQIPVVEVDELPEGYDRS
Kind of assay: crystal structure; Tah1 at 10 mg/ml with 5 mM … peptide; sitting drop, 100 mM MES pH 6.0, 200 mM ammonium chloride, 20% PEG 6000, 4°C; refined to 2 Å. The settings on record: both partners purified.

B1: Hsp90 600-709 (domain or fragment)
chain: not shown
notes: Hsp90 C-terminal fragment, residues 600-709; Used at 70 µM in the pull-down; also called cHsp90
Consider B1, for which the binding result with Flag-Tah1 is recorded as “binds”.

B2: Hsp90 peptide EDASRMEEVD (peptide)
peptide: EDASRMEEVD
notes: C-terminal peptide of Hsp90 with the conserved MEEVD motif; also called MEEVD peptide of Hsp90; SRMEEVD peptide
Consider B2, for which, in assay [1], the binding result is listed as “binds”.
